In US20090269346A1:
Values belong to the substance of their own block, whether it stands above or below them.

What was measured:
[1] = target: LRP2 CR89 Y1042W V1047D (human) (UniProt P98164); assay: solid-phase assay, coated CR protein, anti-RAP, OD450
[2] = target: LRP1 CR3-5 (human); assay: solid-phase assay, coated CR protein, RAP-IDU detected by iduronidase activity
[3] = target: LRP2 CR3435 (human) (UniProt P98164); assay: solid-phase assay: CR protein coated on the plate, RAP-IDU titrated, bound iduronidase activity read as rfu
[4] = target: GFRα-1; assay: solid-phase binding assay (FIG. 11)
[5] = target: GFRα-1; assay: solid-phase assay (ELISA): RAP-GDNF concentration varied on GFRalpha-1, OD 450 nm; per paragraph 304 GFRalpha-1 coated on the plate and bound protein detected with anti-GDNF mAb

LRP2 CR89 Y1042W V1047D (human), sequence (P98164 1022-1105 Y1043W/V1048D limits assumed): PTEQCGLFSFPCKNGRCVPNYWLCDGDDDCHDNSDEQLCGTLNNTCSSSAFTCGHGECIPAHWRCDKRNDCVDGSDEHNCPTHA
LRP1 CR3-5 (human), sequence (Q07954 852-973): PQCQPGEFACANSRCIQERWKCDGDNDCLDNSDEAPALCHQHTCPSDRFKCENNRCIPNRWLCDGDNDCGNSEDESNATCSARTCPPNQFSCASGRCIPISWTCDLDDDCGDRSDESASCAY

% max bind [1]: 11%
Substance: wild-type RAP d3 (from UniProt P30533 235-353) (ligand)

Kd [2]: 3 nM
Kd [3]: 722 nM
Substance: RAP-IDU (fusion of RAP and human α-L-iduronidase) (from UniProt P35475 28-653)

Kd [4]: 5 ng/mL
EC50 (read off the curve) [5]: 2 ng/mL
Substance: RAP-GDNF fusion protein (from UniProt P39905 78-211)
